Each block holds one molecule with its values, some of them ahead of it.
What was measured:
mCherry-IZ-sCD95L = assay: fluorescence correlation spectroscopy
mCherry-sCD95L = assay: fluorescence correlation spectroscopy
[1] = biological target: T1, CD95-mEos2 (human), P25445; assay: quantitative PALM; conditions: remark: other sources report otherwise
T1 chain: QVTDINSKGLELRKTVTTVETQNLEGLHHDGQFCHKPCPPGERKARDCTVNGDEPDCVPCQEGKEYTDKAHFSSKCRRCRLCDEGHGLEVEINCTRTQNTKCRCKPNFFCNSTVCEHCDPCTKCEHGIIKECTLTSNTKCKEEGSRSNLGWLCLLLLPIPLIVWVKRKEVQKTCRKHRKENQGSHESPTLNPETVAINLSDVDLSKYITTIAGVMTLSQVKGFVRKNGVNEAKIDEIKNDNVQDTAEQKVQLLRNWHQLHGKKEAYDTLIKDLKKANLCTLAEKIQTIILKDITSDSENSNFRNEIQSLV

stoichiometry N (mCherry-IZ-sCD95L): 3
Molecule: mCherry-IZ-sCD95L (ligand)

stoichiometry N (mCherry-sCD95L): 3
Molecule: mCherry-sCD95L (ligand)

fraction of dimers [1]: 42%
fraction of monomers [1]: 58%
B1: CD95-mEos2, P25445 26-335 (receptor)
chain: QVTDINSKGLELRKTVTTVETQNLEGLHHDGQFCHKPCPPGERKARDCTVNGDEPDCVPCQEGKEYTDKAHFSSKCRRCRLCDEGHGLEVEINCTRTQNTKCRCKPNFFCNSTVCEHCDPCTKCEHGIIKECTLTSNTKCKEEGSRSNLGWLCLLLLPIPLIVWVKRKEVQKTCRKHRKENQGSHESPTLNPETVAINLSDVDLSKYITTIAGVMTLSQVKGFVRKNGVNEAKIDEIKNDNVQDTAEQKVQLLRNWHQLHGKKEAYDTLIKDLKKANLCTLAEKIQTIILKDITSDSENSNFRNEIQSLV
